Assay results: the supplement of paper PMC9112550, “Optimization of the antimicrobial peptide Bac7 by deep mutational scanning” (BMC Biology, 2022)

System: Escherichia coli TOP10
Experiment: shrunken log2 fold change of peptide-encoding DNA abundance (4.5 h post-induction vs induction); higher = less antimicrobial activity (less host growth inhibition)
Details: time post-induction: 4.5 h; library: site-saturation at positions 5, 18, 19, 20
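Also: peptides expressed intracellularly from a pBAD plasmid library in pooled LB shake-flask culture, induced with 0.3% L-arabinose, DNA abundance read by NGS, three biological replicates, DESeq2 with apeglm shrinkage.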

Row | Sequence | shrunken log2 fold change
1 | RRIRCRPPRLPRPRPRPHATPRP | 0.204
2 | RRIRCRPPRLPRPRPRPHCNPRP | -0.395
3 | RRIRCRPPRLPRPRPRPHDKPRP | -0.363
4 | RRIRCRPPRLPRPRPRPHESPRP | -0.123
5 | RRIRCRPPRLPRPRPRPHFQPRP | -0.511
6 | RRIRCRPPRLPRPRPRPHFSPRP | -0.473
7 | RRIRCRPPRLPRPRPRPHFWPRP | 0.125
8 | RRIRCRPPRLPRPRPRPHGCPRP | -0.037
9 | RRIRCRPPRLPRPRPRPHIGPRP | 0.000633
10 | RRIRCRPPRLPRPRPRPHIKPRP | -0.788
11 | RRIRCRPPRLPRPRPRPHIRPRP | -0.585
12 | RRIRCRPPRLPRPRPRPHKVPRP | -0.446
13 | RRIRCRPPRLPRPRPRPHLFPRP | -0.198
14 | RRIRCRPPRLPRPRPRPHLQPRP | -0.319
15 | RRIRCRPPRLPRPRPRPHLWPRP | 0.129
16 | RRIRCRPPRLPRPRPRPHNSPRP | -0.273
17 | RRIRCRPPRLPRPRPRPHPMPRP | -0.243
18 | RRIRCRPPRLPRPRPRPHPNPRP | -0.186
19 | RRIRCRPPRLPRPRPRPHQAPRP | -0.0274
20 | RRIRCRPPRLPRPRPRPHQFPRP | 0.0354
21 | RRIRCRPPRLPRPRPRPHRNPRP | -0.791
22 | RRIRCRPPRLPRPRPRPHSDPRP | -0.412
23 | RRIRCRPPRLPRPRPRPHTEPRP | -0.273
24 | RRIRCRPPRLPRPRPRPHVAPRP | -0.0172
25 | RRIRCRPPRLPRPRPRPHVNPRP | -0.497

Row | Sequence | shrunken log2 fold change
26 | RRIRCRPPRLPRPRPRPHVTPRP | -0.64
27 | RRIRCRPPRLPRPRPRPHWYPRP | -0.714
28 | RRIRCRPPRLPRPRPRPHYCPRP | -0.342
29 | RRIRCRPPRLPRPRPRPHYHPRP | -0.755
30 | RRIRCRPPRLPRPRPRPHYNPRP | -1.32
31 | RRIRCRPPRLPRPRPRPIADPRP | -0.107
32 | RRIRCRPPRLPRPRPRPICPPRP | -0.148
33 | RRIRCRPPRLPRPRPRPIDEPRP | -0.0366
34 | RRIRCRPPRLPRPRPRPIENPRP | -0.209
35 | RRIRCRPPRLPRPRPRPIESPRP | 0.204
36 | RRIRCRPPRLPRPRPRPIFMPRP | -0.269
37 | RRIRCRPPRLPRPRPRPIGTPRP | -0.279
38 | RRIRCRPPRLPRPRPRPIHTPRP | -0.527
39 | RRIRCRPPRLPRPRPRPIIEPRP | -0.851
40 | RRIRCRPPRLPRPRPRPIIGPRP | -0.304
41 | RRIRCRPPRLPRPRPRPIIPPRP | -0.645
42 | RRIRCRPPRLPRPRPRPIIVPRP | -0.425
43 | RRIRCRPPRLPRPRPRPILDPRP | -0.122
44 | RRIRCRPPRLPRPRPRPILEPRP | -0.247
45 | RRIRCRPPRLPRPRPRPILKPRP | -0.263
46 | RRIRCRPPRLPRPRPRPILQPRP | -0.0117
47 | RRIRCRPPRLPRPRPRPIMSPRP | -0.128
48 | RRIRCRPPRLPRPRPRPIPFPRP | -0.436
49 | RRIRCRPPRLPRPRPRPIPNPRP | 0.0105
50 | RRIRCRPPRLPRPRPRPIPYPRP | -0.0796

Row | Sequence | shrunken log2 fold change
51 | RRIRCRPPRLPRPRPRPISCPRP | -0.0979
52 | RRIRCRPPRLPRPRPRPITLPRP | -0.441
53 | RRIRCRPPRLPRPRPRPITPPRP | -0.219
54 | RRIRCRPPRLPRPRPRPIVLPRP | -0.456
55 | RRIRCRPPRLPRPRPRPIVQPRP | 0.0655
56 | RRIRCRPPRLPRPRPRPIWCPRP | 2.08e-06
57 | RRIRCRPPRLPRPRPRPIYQPRP | -0.306
58 | RRIRCRPPRLPRPRPRPKCRPRP | -0.281
59 | RRIRCRPPRLPRPRPRPKEKPRP | 0.00563
60 | RRIRCRPPRLPRPRPRPKFIPRP | -0.653
61 | RRIRCRPPRLPRPRPRPKFKPRP | -0.287
62 | RRIRCRPPRLPRPRPRPKHGPRP | -0.116
63 | RRIRCRPPRLPRPRPRPKHMPRP | -0.25
64 | RRIRCRPPRLPRPRPRPKIGPRP | 0.0398
65 | RRIRCRPPRLPRPRPRPKKFPRP | -0.00227
66 | RRIRCRPPRLPRPRPRPKLDPRP | 0.125
67 | RRIRCRPPRLPRPRPRPKMKPRP | -0.269
68 | RRIRCRPPRLPRPRPRPKMMPRP | -0.113
69 | RRIRCRPPRLPRPRPRPKMNPRP | -0.415
70 | RRIRCRPPRLPRPRPRPKMPPRP | 0.0277
71 | RRIRCRPPRLPRPRPRPKNWPRP | 0.331
72 | RRIRCRPPRLPRPRPRPKPFPRP | -0.0386
73 | RRIRCRPPRLPRPRPRPKPMPRP | -0.00253
74 | RRIRCRPPRLPRPRPRPKPNPRP | 0.572
75 | RRIRCRPPRLPRPRPRPKPPPRP | 0.931

Row | Sequence | shrunken log2 fold change
76 | RRIRCRPPRLPRPRPRPKQQPRP | 0.143
77 | RRIRCRPPRLPRPRPRPKQWPRP | -0.0437
78 | RRIRCRPPRLPRPRPRPKRHPRP | 0.341
79 | RRIRCRPPRLPRPRPRPKRNPRP | 0.34
80 | RRIRCRPPRLPRPRPRPKRWPRP | 0.627
81 | RRIRCRPPRLPRPRPRPKSCPRP | 0.0733
82 | RRIRCRPPRLPRPRPRPKTTPRP | -0.000868
83 | RRIRCRPPRLPRPRPRPKTWPRP | 0.0688
84 | RRIRCRPPRLPRPRPRPKWHPRP | -0.169
85 | RRIRCRPPRLPRPRPRPKWQPRP | 0.0444
86 | RRIRCRPPRLPRPRPRPLAHPRP | -0.0666
87 | RRIRCRPPRLPRPRPRPLAIPRP | -0.0224
88 | RRIRCRPPRLPRPRPRPLALPRP | -0.621
89 | RRIRCRPPRLPRPRPRPLASPRP | 0.139
90 | RRIRCRPPRLPRPRPRPLAVPRP | 0.0263
91 | RRIRCRPPRLPRPRPRPLCDPRP | 0.54
92 | RRIRCRPPRLPRPRPRPLDHPRP | -0.289
93 | RRIRCRPPRLPRPRPRPLDMPRP | -0.549
94 | RRIRCRPPRLPRPRPRPLFPPRP | -0.2
95 | RRIRCRPPRLPRPRPRPLFVPRP | -0.482
96 | RRIRCRPPRLPRPRPRPLFWPRP | 0.153
97 | RRIRCRPPRLPRPRPRPLGCPRP | 0.347
98 | RRIRCRPPRLPRPRPRPLGYPRP | 0.0405
99 | RRIRCRPPRLPRPRPRPLICPRP | -0.499
100 | RRIRCRPPRLPRPRPRPLKWPRP | -0.0792

Row | Sequence | shrunken log2 fold change
101 | RRIRCRPPRLPRPRPRPLLAPRP | 0.229
102 | RRIRCRPPRLPRPRPRPLLDPRP | 0.0618
103 | RRIRCRPPRLPRPRPRPLLVPRP | -0.317
104 | RRIRCRPPRLPRPRPRPLMVPRP | -0.519
105 | RRIRCRPPRLPRPRPRPLNFPRP | -0.0754
106 | RRIRCRPPRLPRPRPRPLNLPRP | -0.489
107 | RRIRCRPPRLPRPRPRPLNTPRP | -0.343
108 | RRIRCRPPRLPRPRPRPLQGPRP | 0.0488
109 | RRIRCRPPRLPRPRPRPLQHPRP | -0.0615
110 | RRIRCRPPRLPRPRPRPLRAPRP | 1.02
111 | RRIRCRPPRLPRPRPRPLREPRP | 0.562
112 | RRIRCRPPRLPRPRPRPLRHPRP | 0.479
113 | RRIRCRPPRLPRPRPRPLRMPRP | 0.461
114 | RRIRCRPPRLPRPRPRPLRQPRP | 0.713
115 | RRIRCRPPRLPRPRPRPLSSPRP | -0.173
116 | RRIRCRPPRLPRPRPRPLTHPRP | -0.345
117 | RRIRCRPPRLPRPRPRPLTLPRP | -0.582
118 | RRIRCRPPRLPRPRPRPLWKPRP | 0.101
119 | RRIRCRPPRLPRPRPRPMACPRP | 0.00876
120 | RRIRCRPPRLPRPRPRPMAYPRP | -0.00456
121 | RRIRCRPPRLPRPRPRPMCGPRP | -0.0984
122 | RRIRCRPPRLPRPRPRPMCVPRP | -0.185
123 | RRIRCRPPRLPRPRPRPMDFPRP | -0.151
124 | RRIRCRPPRLPRPRPRPMDLPRP | -0.0384
125 | RRIRCRPPRLPRPRPRPMDYPRP | -0.181

Row | Sequence | shrunken log2 fold change
126 | RRIRCRPPRLPRPRPRPMETPRP | -0.0136
127 | RRIRCRPPRLPRPRPRPMFPPRP | -0.511
128 | RRIRCRPPRLPRPRPRPMGHPRP | -0.262
129 | RRIRCRPPRLPRPRPRPMGPPRP | 0.128
130 | RRIRCRPPRLPRPRPRPMGRPRP | 0.162
131 | RRIRCRPPRLPRPRPRPMILPRP | -0.352
132 | RRIRCRPPRLPRPRPRPMKIPRP | 0.13
133 | RRIRCRPPRLPRPRPRPMKKPRP | 0.0602
134 | RRIRCRPPRLPRPRPRPMLKPRP | -0.141
135 | RRIRCRPPRLPRPRPRPMLWPRP | -0.00796
136 | RRIRCRPPRLPRPRPRPMMFPRP | 0.312
137 | RRIRCRPPRLPRPRPRPMMWPRP | -0.137
138 | RRIRCRPPRLPRPRPRPMPIPRP | -0.197
139 | RRIRCRPPRLPRPRPRPMQDPRP | -0.0947
140 | RRIRCRPPRLPRPRPRPMQQPRP | -0.036
141 | RRIRCRPPRLPRPRPRPMRMPRP | 0.22
142 | RRIRCRPPRLPRPRPRPMRRPRP | 0.163
143 | RRIRCRPPRLPRPRPRPMSNPRP | -0.64
144 | RRIRCRPPRLPRPRPRPMTNPRP | -0.434
145 | RRIRCRPPRLPRPRPRPMVVPRP | -0.0292
146 | RRIRCRPPRLPRPRPRPMWAPRP | 0.378
147 | RRIRCRPPRLPRPRPRPMWFPRP | -0.254
148 | RRIRCRPPRLPRPRPRPNAAPRP | 0.975
149 | RRIRCRPPRLPRPRPRPNDIPRP | -0.762
150 | RRIRCRPPRLPRPRPRPNDMPRP | -0.328
